From paper PMC6072280 (Nuclear medicine and biology, 2018)

Legend:
GRPR = GRPR (Homo sapiens, UniProt P30550); details: GRPR-expressing human PC-3 cells, 125I-[Tyr4]-BBN, 1 h 37°C
[1] = system: PC-3 tumor-bearing SCID mice
in vivo = details: male, ICR-SCID, mouse, iv, total radioactivity; for tissue uptake at 1 h / tissue uptake at 4 h / tissue uptake at 24 h: 20 μCi

Sequence of GRPR (P30550 whole entry): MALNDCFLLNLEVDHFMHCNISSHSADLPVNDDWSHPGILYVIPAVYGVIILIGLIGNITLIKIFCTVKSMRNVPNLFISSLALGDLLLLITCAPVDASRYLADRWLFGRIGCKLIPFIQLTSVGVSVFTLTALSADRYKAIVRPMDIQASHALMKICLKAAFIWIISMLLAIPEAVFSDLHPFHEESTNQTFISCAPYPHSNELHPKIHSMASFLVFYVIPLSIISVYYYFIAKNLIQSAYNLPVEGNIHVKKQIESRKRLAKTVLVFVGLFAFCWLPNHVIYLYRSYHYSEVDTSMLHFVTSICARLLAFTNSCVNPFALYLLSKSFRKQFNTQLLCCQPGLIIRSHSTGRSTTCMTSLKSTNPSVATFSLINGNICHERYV

## CC(C)C[C@H](NC(=O)C[C@H](O)[C@H](CC(C)C)NC(=O)[C@H](Cc1c[nH]cn1)NC(=O)CNC(=O)[C@@H](NC(=O)[C@H](C)NC(=O)[C@H](Cc1c[nH]c2ccccc12)NC(=O)[C@H](CCC(N)=O)NC(=O)[C@@H](Cc1ccccc1)NC(=O)CCCCCNC(=O)[C@H](CCC(=O)NCCCC[C@@H]1NC(=O)[C@@H](Cc2ccc(O)cc2)NC(=O)[C@H](CC(=O)O)NC(=O)CNC(=O)[C@H](CCCNC(=N)N)NC1=O)NC(=O)CN1CCN(CC(=O)O)CCN(CC(=O)O)CCN(CC(=O)O)CC1)C(C)C)C(N)=O [[RGD-Glu-[DO3A]-6-Ahx-RM2]] [[Cyclo-(Arg-Gly-Asp-DTyr-Lys)-(DO3A)-Glu-(6-Ahx-D-Phe-Gln-Trp-Ala-Val-Gly-His-Sta-Leu-NH2)]]
GRPR
  IC50, PC-3: single-digit, nanomolar range

## CC(C)C[C@H](NC(=O)C[C@H](O)[C@H](CC(C)C)NC(=O)[C@H](Cc1c[nH]cn1)NC(=O)CNC(=O)[C@@H](NC(=O)[C@H](C)NC(=O)[C@H](Cc1c[nH]c2ccccc12)NC(=O)[C@H](CCC(N)=O)NC(=O)[C@@H](Cc1ccccc1)NC(=O)CCCCCNC(=O)[C@H](CCC(=O)NCCCC[C@@H]1NC(=O)[C@@H](Cc2ccc(O)cc2)NC(=O)[C@H](CC(=O)O)NC(=O)CNC(=O)[C@H](CCCNC(=N)N)NC1=O)NC(=O)CN1CCN(CC(=O)O)CCN(CC(=O)O)CCN(CC(=O)O)CC1)C(C)C)C(N)=O [[RGD-Glu-[[^90Y]Y-DO3A]-6-Ahx-RM2], metal not drawn]
[1]; 4 h p.i., i.v., n = 5
  Biodistribution, Urine (urinary excretion): 93.4 %ID
[1]; urine collected from tumor-bearing mice
  In vivo stability, RP-HPLC of urinary radioactivity: eluted with a similar retention time
In vivo; bone
  tissue uptake at 1 h: 0.45 ± 0.08 %ID/g
  tissue uptake at 4 h: 0.29 ± 0.05 %ID/g
  tissue uptake at 24 h: 0.33 ± 0.12 %ID/g
In vivo; brain
  tissue uptake at 1 h: 0.03 ± 0.01 %ID/g
  tissue uptake at 4 h: 0.01 %ID/g
In vivo; heart
  tissue uptake at 1 h: 0.31 ± 0.06 %ID/g
  tissue uptake at 4 h: 0.16 ± 0.05 %ID/g
  tissue uptake at 24 h: 0.15 ± 0.04 %ID/g
In vivo; kidneys
  tissue uptake at 1 h: 2.36 ± 0.49 %ID/g
  tissue uptake at 4 h: 1.54 ± 0.31 %ID/g
  tissue uptake at 24 h: 0.89 ± 0.21 %ID/g
In vivo; large intestine
  tissue uptake at 1 h: 0.64 ± 0.12 %ID/g
  tissue uptake at 4 h: 0.66 ± 0.26 %ID/g
  tissue uptake at 24 h: 0.31 ± 0.06 %ID/g
In vivo; liver
  tissue uptake at 1 h: 0.39 ± 0.08 %ID/g
  tissue uptake at 4 h: 0.35 ± 0.07 %ID/g
  tissue uptake at 24 h: 0.29 ± 0.15 %ID/g
In vivo; lung
  tissue uptake at 1 h: 0.8 ± 0.27 %ID/g
  tissue uptake at 4 h: 0.44 ± 0.06 %ID/g
  tissue uptake at 24 h: 0.37 ± 0.1 %ID/g
In vivo; muscle
  tissue uptake at 1 h: 0.22 ± 0.06 %ID/g
  tissue uptake at 4 h: 0.11 ± 0.02 %ID/g
  tissue uptake at 24 h: 0.1 ± 0.03 %ID/g
In vivo; pancreas
  tissue uptake at 1 h: 6.81 ± 0.92 %ID/g
  tissue uptake at 4 h: 0.55 ± 0.12 %ID/g
  tissue uptake at 24 h: 0.27 ± 0.05 %ID/g
In vivo; small intestine
  tissue uptake at 1 h: 1.41 ± 0.32 %ID/g
  tissue uptake at 4 h: 0.39 ± 0.09 %ID/g
  tissue uptake at 24 h: 0.34 ± 0.07 %ID/g
In vivo; spleen
  tissue uptake at 1 h: 1.36 ± 0.25 %ID/g
  tissue uptake at 4 h: 1.07 ± 0.18 %ID/g
  tissue uptake at 24 h: 1.21 ± 0.23 %ID/g
In vivo; stomach
  tissue uptake at 1 h: 1.19 ± 0.34 %ID/g
  tissue uptake at 4 h: 0.33 ± 0.07 %ID/g
  tissue uptake at 24 h: 0.22 ± 0.03 %ID/g
In vivo; tumor (PC-3 xenograft)
  tissue uptake at 1 h: 8.7 ± 0.35 %ID/g
  tissue uptake at 4 h: 4.48 ± 0.31 %ID/g
  tissue uptake at 24 h: 5.28 ± 0.12 %ID/g
In vivo; urine, 20 uCi
  dose excreted at 1 h: 84.6 ± 3.52%
  dose excreted at 4 h: 93.4 ± 1.26%
  dose excreted at 24 h: 92.7 ± 2.06%
In vivo; whole blood, 20 uCi
  tissue uptake dose at 1 h: 0.18 ± 0.04 %ID
  tissue uptake dose at 4 h: 0.01 %ID
  tissue uptake dose at 24 h: 0.01 %ID
